Measured values from patent US9624471B2, “Methods for maturing cardiomyocytes and uses thereof” (UNIVERSITY OF WASHINGTON THROUGH ITS CENTER FOR …, priority 2013, dated 2017).

What was measured:
[1] = test system: HECT293FT cells; assay: Lipofectamine transient transfection of plko-let-7g and plko-let-7g-E plasmids, mature let-7g and target expression after 24 hrs; format: cell-based; conditions: 24 hrs after transfection
Protocol: FIGS. 20A-20B Modified let-7g (let-7g-E) is more efficient in generating mature let-7g in HECT293FT cells. Let-7g and a modified version of let-7g (plko-let-7g-E) were induced in hect 293 FT cells by introducing plko-let-7g and plko-let-7g-E plasmids with lipofectamine transient transfection assay. 24 hrs after transfection, cells were tested for mature let-7g expression. […] (FIG. 20B) Targets of let-7 are repressed when we over-express let-7g-E similar to that seen during over-expression of let-7g.

[2] = test system: RUES2-CMs; assay: Immunocytochemistry (α-actinin staining) and morphological analysis of lentivirally transduced cardiomyocytes; format: cell-based, human; conditions: Lin28a OE CMs compared to EV control
Protocol: Undifferentiated human embryonic stem cell (hESCs) lines H7 (NIHhESCC-10-0061) and RUES2 (NIHhESC-09-0013) were expanded using mouse embryonic fibroblast-conditioned medium with 5 ng/ml basic fibroblast growth factor. H7-CMs were derived using previously reported protocols^1-3. RUES2-CMs were used for all functional analyses and these were derived using a cardiac progenitor cell differentiation protocol^4 derived from previously reported monolayer directed differentiation methods^1, 5, 6. In brief, this involves the induction of a monolayer of hESCs with activin A and bone morphogenetic protein-4 (BMP4) under serum- and insulin-free conditions. During the early stages of differentiation, the cells were also exposed to the Wnt agonist CHIR 99021 followed by the Wnt antagonist Xav939. From 7 days of in vitro differentiation, the cells were fed every alternate day with serum-free RPMI-B27 plus insulin media. After 20 days of in vitro differentiation, the cells were trypsinized and replated. Only those cell preparations that had at least 70% cardiac troponin T-positive CMs (as observed by flow cytometry) were used for further experiments. For experiments where the H7-CMs were cultured for around a year, the cells were replated after the 3rd and 11th month from day 0. At the 11th month, FACS analysis for cTnT was conducted and the CMs were split into three parts and were cultured as three independent replicates for another 1.5 months after which they were harvested for RNA extraction. IMR90iPSC-CMs cultured for 1 yr were replated at day 20 and split every 2 months for 12 months before harvesting for RNA extraction. To generate engineered cardiac tissue, the inventors used the procedure reported by Tulloch et al.^2 In brief, day 20 CMs are suspended in the collagen gel at 10,000/μl, and rod-shaped constructs of 25 μl (1 mm radius×8 mm length) were generated by casting in a preformed mold and warming to 37° C. The ends of the mold contain Velcro-like micro-fiber loops, and these become impregnated with gel+cell mixture. These tabs allow the constructs to be maintained under static tension, which facilitates alignment and differentiation of the CMs. The constructs were maintained in the serum-free RPMI-B27 plus glutamine media up to 2 weeks. For let-7 overexpression analysis, the CMs were transduced with the virus carrying the pLKO-let-7 or empty vector control pLKO plasmid at day 12 of the directed differentiation protocol. After overnight transduction the virus was removed, cells were rinsed with PBS and new media added. The samples were analyzed at day 30 from the initiation of differentiation.
All morphological analyses were carried out using at least 50 cells. Cells replated in chamber slides were fixed in 4% paraformaldehyde for 15 minutes followed by PBS wash. The fixed cells were blocked for an hour with 1.5% normal goat serum and incubated O/N with mouse alpha actinin (sigma) primary antibody. The primary antibody was rinsed with PBS and incubated with secondary antibody (Alexa fluor 488 [Goat anti mouse]) for an hour followed by nuclear staining using DAPI. For cell area and perimeter measurements, images were acquired and processed using ZEISS™ AXIO fluorescent microscope and AXIOVISION™ software. For sarcomere length, images were acquired and processed using LEICA™ TCS-SPE confocal microscope and LEICA™ software. These confocal images were used to select 1-2 myofibrils per cell with at least ten continuous, well-recognized alpha-actinin bands and divided the length value by the number of sarcomeres. The images were further analyzed using IMAGE J™ software.
For lenti-let-7 OE constructs, Pri-miR-let-7i and pri-miR-let-7g sequence was amplified from H7 genomic DNA using forward primer for let-7i-TCCGCGTGGTCCCGT; reverse primer for let-7i-ATTGTCCTCCGCGGCGC and forward primer for let-7g-AGAGTTCCTCCAGCGCTCC; reverse primer for let-7g-CCCCACTTGGCAGCTGGC, resulting in 153 bp and 154 bp products, respectively. […]

[3] = test system: RUES2-CMs; assay: mRNA and miRNA qPCR analysis in transduced RUES2-CMs; format: cell-based, human; conditions: Lin28a OE hESC-CMs
Protocol: Undifferentiated human embryonic stem cell (hESCs) lines H7 (NIHhESCC-10-0061) and RUES2 (NIHhESC-09-0013) were expanded using mouse embryonic fibroblast-conditioned medium with 5 ng/ml basic fibroblast growth factor. H7-CMs were derived using previously reported protocols^1-3. RUES2-CMs were used for all functional analyses and these were derived using a cardiac progenitor cell differentiation protocol^4 derived from previously reported monolayer directed differentiation methods^1, 5, 6. In brief, this involves the induction of a monolayer of hESCs with activin A and bone morphogenetic protein-4 (BMP4) under serum- and insulin-free conditions. During the early stages of differentiation, the cells were also exposed to the Wnt agonist CHIR 99021 followed by the Wnt antagonist Xav939. From 7 days of in vitro differentiation, the cells were fed every alternate day with serum-free RPMI-B27 plus insulin media. After 20 days of in vitro differentiation, the cells were trypsinized and replated. Only those cell preparations that had at least 70% cardiac troponin T-positive CMs (as observed by flow cytometry) were used for further experiments. For experiments where the H7-CMs were cultured for around a year, the cells were replated after the 3rd and 11th month from day 0. […] The samples were analyzed at day 30 from the initiation of differentiation. […]

B1: let-7g-E: modified hsa-let-7g with mutated GGAG LIN28 binding motif, SEQ ID NO: 12 (also SEQ ID NO: 16) (nucleic acid, listed as Homo sapiens)
chain: AGGCUGAGGUAGUAGUUUGUACAGUUUGAGGGUCUAUGAUACCACCCGGUACAUCAGAUAACUGUACAGGCCACUGCCUUGCCA
modifications: listed as RNA, chemistry not fully specified
- Targets of let-7 expression [1]: repressed
- mature let-7g expression ([1]; compared to EV and native let-7g): much higher expression

B2: Lin28a: Lin28a over-expressed in RUES2-CMs; LIN28 is the negative regulator of let-7 processing (protein, UniProt Q9H9Z2 2-209, looked up)
Protein lin-28 homolog A: GSVSNQQFAGGCAKAAEEAPEEAPEDAARAADEPQLLHGAGICKWFNVRMGFGFLSMTARAGVALDPPVDVFVHQSKLHMEGFRSLKEGEAVEFTFKKSAKGLESIRVTGPGGVFCIGSERRPKGKSMQKRRSKGDRCYNCGGLDHHAKECKLPPQPKKCHFCQSISHMVASCPLKAQQGPSAQGKPTYFREEEEEIHSPTLLPEAQN
- cell area [2]: significant decrease
- circularity index [2]: increase
- sarcomere length [2]: significant decrease
- cell perimeter ([2]; N=50 cells per condition): significant decrease
- let-7i and let-7g expression [3]: down-regulated
